Test results as given in US20240026019A1 (Innovent, published 2024).

T1: rh-TNFR2-His (recombinant human TNFR2, His tag) (human, UniProt P20333 23-257)
T1 construct: Soluble antigen of the ForteBio assay; not shown: His tag
T1 sequence (looked up): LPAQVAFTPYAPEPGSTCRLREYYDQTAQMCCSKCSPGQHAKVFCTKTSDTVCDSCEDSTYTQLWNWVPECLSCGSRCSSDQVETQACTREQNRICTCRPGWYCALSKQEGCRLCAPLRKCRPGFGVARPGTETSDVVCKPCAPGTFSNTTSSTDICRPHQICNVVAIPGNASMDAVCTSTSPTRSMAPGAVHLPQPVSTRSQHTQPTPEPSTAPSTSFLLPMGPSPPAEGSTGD

T2: CYNO-TNFR2-His (cynomolgus monkey TNFR2, His tag) (cynomolgus monkey, UniProt A0A2K5VET2 132-366)
T2 construct: Soluble antigen of the ForteBio assay; also called cTNFR2; not shown: His tag
T2 sequence: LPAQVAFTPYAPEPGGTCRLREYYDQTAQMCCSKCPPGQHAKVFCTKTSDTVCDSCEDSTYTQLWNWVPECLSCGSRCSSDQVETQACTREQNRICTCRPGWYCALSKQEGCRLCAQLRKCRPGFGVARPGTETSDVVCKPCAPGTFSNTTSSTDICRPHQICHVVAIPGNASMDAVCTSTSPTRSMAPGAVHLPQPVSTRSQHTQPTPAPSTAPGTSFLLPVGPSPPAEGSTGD

T3: hTNFR2 protein (coated on the microplate in the blocking ELISA) (human, UniProt P20333 23-257)
T3 construct: The construct coated in the ELISA is not described (it may or may not be the immunogen, Sino biological 10417-H03H)
T3 sequence (looked up): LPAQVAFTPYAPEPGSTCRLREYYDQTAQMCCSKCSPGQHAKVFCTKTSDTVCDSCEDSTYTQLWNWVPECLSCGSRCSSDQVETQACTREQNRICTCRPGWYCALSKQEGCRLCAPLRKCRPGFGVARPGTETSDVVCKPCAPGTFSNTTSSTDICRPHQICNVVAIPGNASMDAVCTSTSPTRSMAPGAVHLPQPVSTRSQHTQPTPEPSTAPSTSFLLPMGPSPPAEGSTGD


Assays:
[1] = target: T1, rh-TNFR2-His (recombinant human TNFR2, …); assay: BLI (ForteBio), antibody on sensor, 100 nM rh-TNFR2-His in solution, 1:1 model
Experimental: (§1) In the present invention, the equilibrium dissociation constant (KD) for the binding of the 3 exemplary chimeric antibodies of the present invention described above to human TNFR2 (hTNFR2), cynomolgus monkey TNFR2 (cTNFR2), murine TNFR2(mTNFR2), and human TNFR1(hTNFR1) was determined by biological optical interferometry (ForteBio). For comparison, the equilibrium dissociation constant (KD) of a positive control antibody OPI (humanized antibody SBT-002e in WO 2017083525, VH sequence of SEQ ID NO: 58, VL sequence of SEQ ID NO: 59) was determined.
(§2) The ForteBio affinity assay was performed according to the prior art (Estep, P, et al., High throughput solution based measurement of antibody-antigen affinity and epitope binning. MAbs, 2013.5(2): p. 270-278). Briefly, a sensor was equilibrated offline in an assay buffer for 30 min, and was equilibrated online for 60 s to establish a baseline. The purified antibodies obtained as described above were loaded online onto an AHQ sensor (ForteBio) for the ForteBio affinity assay. The sensor with the loaded antibodies was then exposed to each of 100 nM hTNFR2, cTNFR2, mTNFR2, and hTNFR1 antigens for 5 min before transferring the sensor to an assay buffer for 5 min of dissociation for dissociation rate measurement. The kinetic analysis was performed using a 1:1 binding model.

[2] = target: T2, CYNO-TNFR2-His (cynomolgus monkey …); assay: BLI (ForteBio), antibody on sensor, 100 nM CYNO-TNFR2-His in solution, 1:1 model
Experimental: as §1, §2

[3] = target: T3, hTNFR2 protein (coated on the …); assay: blocking ELISA: hTNFR2 coated on the plate, binding of biotinylated TNFα blocked by the antibody; the table row is headed EC50; unit taken from the axis log Conc nM
Experimental: The ability of the chimeric antibodies 3C4, 69B1, and 72G8 and the control antibody OPI to block the binding of human TNFα to hTNFR2 was assayed by ELISA.
The hTNFR2 protein was resuspended and dissolved to a concentration of 2 μg/mL with PBS, and a microplate was coated with the protein and incubated overnight. The plate was blocked with 5% BSA for 1 h, and a biotinylated antigen (Recombinant Biotinylated TNFα protein (ACRO)) was diluted to 2 μg/mL and added to the plate at 10 μL/well. The antibodies prepared as described above (3C4, 69B1, and 72G8) were each diluted in a gradient starting from the maximum concentration of 300 nM for a total of 8 or 12 dilution gradients. The diluted antibodies were added at 100 μL/well and incubated in PBS on ice for 30 min. The antigen-antibody mixture was incubated in a microplate for 90 min and washed three times with PBS, and the supernatant was discarded. 100 μL of Avidin-HRP (Invitrogen) diluted at a 1:5000 ratio was added to each well, incubated at room temperature for 30 min, and washed six times with PBS. A TMB chromogenic solution (solarbio) was added to the plate at 100 μL/well for color development for 1 min, and the reaction was stopped by adding a stop buffer (solarbio) at 100 μL/well. The plate was read on a microplate reader at OD₄₅₀ and OD₆₂₀.

Kd [1] [nM]	koff [1] [s⁻¹]	kon [1] [M⁻¹ s⁻¹]	Kd [2] [nM]	koff [2] [s⁻¹]	kon [2] [M⁻¹ s⁻¹]	IC50 [3] [nM]	Binder
1.36	0.00176	1.29e+06	1.42	0.00201	1.41e+06	3.11	chimeric antibody 3C4 (antibody, human IgG1, kappa, V domains shown) VH: QVQLQQSGPELVKPGASVTISCKASDYSFTNYYIHWVKQRPGQGLEWIGWIYPGNVITKYHEKFKGKAILTADTSSTTAYMQLNSLTSEDSAVYFCARSRATGYFDYWGQGTTLTVSS VL: DIQMTQTTSSLSASLGDRVTISCRASQDIRNYLNWFQQKPDGTIKLLIYYTSRLHSGVPSRFSGSGSGTDYSLTISNLEQEDMATYFCQQFNTLPWTFGGGTKLEIKR
4.18	0.000229	54800	1.15	0.000328	284000	4.56	positive control antibody OPI (humanized antibody SBT-002e in WO 2017083525) (antibody, V domains shown, also called Benchmark OPI) VH: QVTLKESGPALVKPTQTLTLTCTFSGFSLSTSGMGVGWIRQPPGKALEWLAHIWWDDDKFYNPSLKSRLTISKDTSKNQVVLTMTNMDPVDTATYYCARLTGTRYFDYWGQGTTVTVSS VL: DVQMTQSPSSLSASVGDRVTITCKASQDINKFIAWYQQKPGKAPKLLIHYTSTLQPGIPSRFSGSGSGRDYTFTISSLQPEDIATYYCLQYGNLWTFGGGTKVEIK
0.265	0.000519	1.96e+06	1.11	0.00198	1.79e+06	2.15	chimeric antibody 69B1 (antibody, human IgG1, kappa, V domains shown) VH: QIQLVQSGPELKKPGETVKISCKASGYTFTDYSMNWVKQAPGKGLKWMGWLNTETGEPIYADDFKGRFVFSLETSASTAYLEINNLNDEDTATYFCAREAIYYGTSYVLDYWGQGTSVTVSS VL: DIVLTQSPASLAVSLGQRATISCRASESVEYYGTNFMQWYQQKPGQPPKLLIYSASNVESGVPARFSGSGSGTDFSLNIHPVEEDDIAVYFCQQSRKDPSTFGEGTNLEIKR
